From patent publication US20230167177A1 (WUXI BIOLOGICS IRELAND, published 2023)
Changes are numbered by the printed parent chain.

T1: hICOS.mFC (human, UniProt Q9Y6W8 21-140)
T1 construct: not shown: mFc tag
T1 sequence (looked up): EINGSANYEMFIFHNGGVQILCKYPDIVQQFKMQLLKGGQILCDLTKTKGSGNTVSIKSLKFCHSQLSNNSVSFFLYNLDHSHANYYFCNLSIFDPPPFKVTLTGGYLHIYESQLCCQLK

B1: W3166-z13 (Fc fusion)
chain: QVQLVESGGGLVQPGGSLRLSCAASGRTFSSYAMGWFRQAPGMEREFVASIRWSDQTTYVPNSVKGRFTISRDNSKNTLYLQMNSLRPEDTAVYYCATGPTRLSFYSGNYRTYDSWGQGTLVTVSS
notes: Tested as VHH linked to human IgG1 Fc; also called humanized VHH antibody W3166-z13; W3166-z13 VHH fused with Fc of human IgG1; not shown: human IgG1 Fc region
B2: W3166-z17 (Fc fusion)
chain: B1 chain with L11V, M43K
notes: Tested as VHH linked to human IgG1 Fc; also called humanized VHH antibody W3166-z17; W3166-z17 VHH fused with Fc of human IgG1; not shown: human IgG1 Fc region

Experiments:
[1] = target: T2, human CTLA-4 on transfected cells (human, UniProt P16410 36-223); experiment: FACS on human CTLA-4 expressing cells
T2 construct: whole, on cells; also called cell surface human CTLA-4; hCTLA4 transfected cells
Method: (§1) For FACS binding, engineered human CTLA-4 expressing cells were seeded at 1×10⁵ cells/well in U-bottom 96-well plates (COSTAR 3799). After centrifugation at 1500 rpm for 4 minutes at 4° C., the supernatants were moved and the serial dilutions of antibodies in 1% BSA-DPBS were added to the cells. The plates were incubated at 4° C. for 1 hour. […] The binding of the antibodies to the cells was tested by flow cytometry and the mean fluorescence intensity (MFI) was analyzed by FlowJo.

[2] = target: T3, cynomolgus CTLA-4 ECD protein (in house) (Macaca fascicularis (cynomolgus monkey), UniProt G7PL88 36-161); experiment: ELISA, cyno CTLA4 ECD coated at 1.0 µg/ml
T3 construct: also called immobilized cyno CTLA-4 ECD protein; cyno CTLA4 ECD protein; not shown: C-terminal tag: 6xHis or Fc
Method: (§2) After blocking with 2% BSA-PBS, serial diluted antibodies were added into each well and incubated for 1 hour at room temperature. HRP-labeled goat anti-human IgG (Bethyl A80-304P) were used as the secondary antibody and incubated for 1 hour. The color was developed by TMB substrate, and then stopped by 2N HCl. The absorbance was read at 450 nm using a Microplate Spectrophotometer (SpectraMax® M5e).
(§3) The binding of testing antibodies to […] was assessed by ELISA and FACS as the described above. […] For FACS binding, engineered Cynomolgus CTLA4 expressing cell pool was used.

[3] = target: T4, human CTLA-4 ECD protein (in house) (human, UniProt P16410 36-161); experiment: ELISA, human CTLA4 ECD coated at 1.0 µg/ml
T4 construct: extracellular domain; also called immobilized human CTLA-4 ECD protein; hCTLA-4; not shown: 6xHis or Fc tag
Method: as §2

[4] = target: T5, cynomolgus CTLA-4 on transfected cells (Macaca fascicularis (cynomolgus monkey), UniProt G7PL88 36-223); experiment: FACS on cynomolgus CTLA4 expressing cell pool
T5 construct: also called cell surface cyno CTLA-4; Cynomolgus CTLA4 expressing cell pool
Method: as §1, §3

[5] = target: T4, human CTLA-4 ECD protein (in house); experiment: competition ELISA, hCTLA4 ECD coated; competitor his-tagged hCD80
Method: (§4) After washing with PBST, biotin-labeled anti-His mAb (GenScript-A00613) was added and incubation 1 hour. […] The color reaction was developed by TMB substrate, and then stopped by 2N HCl. The absorbance was read at 450 nm using a Microplate Spectrophotometer (SpectraMax® M5e).

[6] = target: T4, human CTLA-4 ECD protein (in house); experiment: competition ELISA, hCTLA4 ECD coated; competitor his-tagged hCD86
Method: as §4

hBTLA.His = target: T6, hBTLA.His (human, UniProt Q7Z6A9 31-157, limits assumed); experiment: ELISA on coated BTLA.His, detected with HRP goat anti-human IgG
T6 construct: not shown: His tag
Method: (§5) After blocking with 2% BSA-PBS, 10 μg/ml and 1.0 μg/ml of testing antibodies were respectively added into the plates and incubated for 1 hour at room temperature. The secondary antibody HRP-labeled goat anti-human IgG (Bethyl A80-304P) was then added and incubated for 1 hour. Washes with PBST were performed between each step. The color reaction was developed by TMB substrate, and then stopped by 2N HCl. The absorbance was read at 450 nm using a Microplate Spectrophotometer (SpectraMax® M5e).

hICOS.mFC = target: T1, hICOS.mFC; experiment: ELISA on coated hICOS.mFc, detected with HRP goat anti-human IgG
Method: as §5

[7] = target: T4, human CTLA-4 ECD protein (in house); experiment: competition FACS, biotinylated hCTLA4 ECD; competitor hCD80 on transfected cells
Method: (§6) After washing, streptavidin PE (BD Pharmingen-554061) was added to the cells and incubated at 4° C. for 1 hour. The fluorescence values were measured by flow cytometry and analyzed by FlowJo.

[8] = target: T4, human CTLA-4 ECD protein (in house); experiment: competition FACS, biotinylated hCTLA4 ECD; competitor hCD86 on transfected cells
Method: as §6

[9] = target: T2, human CTLA-4 on transfected cells; experiment: FACS on CTLA-4 transfected cells; antibody incubated in human serum at 37 C for 1 day
Method: (§7) Testing antibodies were incubated in freshly isolated human serum (serum content >90%) at 37° C. On indicated time points, an aliquot of serum treated sample was removed from the incubator and snap frozen in liquid nitrogen, and then stored at −80° C. until test. The samples were quickly thawed immediately prior to the stability test. Serial dilutions of antibodies were incubated with CTLA-4 transfected cells for 1 hour at 4° C. After washing, FITC conjugated goat anti-human IgG antibody (Jackson ImmunoResearch) was added to the cells and incubated at 4° C. for 1 hour. Finally, the cells were washed and resuspended in 1% BSA-PBS. The MFI fluorescence values were measured by flow cytometry and analyzed by FlowJo.

[10] = target: T2, human CTLA-4 on transfected cells; experiment: FACS on CTLA-4 transfected cells; antibody incubated in human serum at 37 C for 0 days
Method: as §7

[11] = target: T2, human CTLA-4 on transfected cells; experiment: FACS on CTLA-4 transfected cells; antibody incubated in human serum at 37 C for 4 days
Method: as §7

[12] = target: T2, human CTLA-4 on transfected cells; experiment: FACS on CTLA-4 transfected cells; antibody incubated in human serum at 37 C for 7 days
Method: as §7

[13] = target: T2, human CTLA-4 on transfected cells; experiment: FACS on CTLA-4 transfected cells; antibody incubated in human serum at 37 C for 14 days
Method: as §7

hPD-1.mFc = target: T7, hPD-1.mFc (human, UniProt Q15116 25-170); experiment: ELISA on coated hPD1 (sheet prints 'hPD1.His', text says hPD-1.mFc), detected with HRP goat anti-human IgG
T7 construct: not shown: mFc tag
Method: as §5

hCD28.mFc = target: T8, hCD28.mFc (human, UniProt P10747 19-152); experiment: ELISA on coated hCD28 (sheet prints 'hCD28.His', text says hCD28.mFc), detected with HRP goat anti-human IgG
T8 construct: not shown: mFc tag
Method: as §5

[14] = target: T4, human CTLA-4 ECD protein (in house); experiment: competition (epitope binning) ELISA on coated human CTLA4 protein; competitor 0.02 ug/ml W316-BMK1-Biotin, detected with streptavidin-HRP
Method: After washing, HRP-conjugated streptavidin were added and incubated for 1 hour. The color was developed by dispensing TMB substrate, and then stopped by 2N HCl. The absorbance was read at 450 nm using a Microplate Spectrophotometer (SpectraMax® M5e).

[15] = target: T2, human CTLA-4 on transfected cells; experiment: cell-based or functional assay
[16] = target: T5, cynomolgus CTLA-4 on transfected cells; experiment: FACS affinity on cyno CTLA-4 transfected cells (cPro1), quantitative beads
Method: (§8) Human CTLA-4 or cyno CTLA-4 transfected cells were plated into 96-well U-bottom plates (BD) at a density of 5×10⁴ cells/well. Testing antibodies were 1:2-fold serially diluted in 1% BSA-PBS and incubated with the cells at 4° C. for 1 hr. After centrifugation at 1500 rpm for 4 min, the supernatant was discarded. The secondary antibody FITC conjugated goat anti-human IgG Fc (Jackson Immunoresearch Lab) was added and incubated at 4° C. in the dark for 30 min. The cells were then washed once and re-suspended in 1% BSA-PBS for the analysis by flow cytometry (BD CantoII). Fluorescence intensity was converted to bound molecules/cell based on the quantitative beads (Quantum™ MESF Kits, Bangs Laboratories). KD was calculated using Graphpad Prism5.

[17] = target: T2, human CTLA-4 on transfected cells; experiment: FACS affinity on human CTLA-4 transfected cells (hPro1), quantitative beads
Method: as §8

[18] = target: T9, human CTLA-4 ECD, His-tagged (human, UniProt P16410 36-161); experiment: SPR (Biacore T200), antibody captured by anti-human IgG Fc, CTLA-4 ECD his as analyte
T9 construct: extracellular domain; also called W316.hprol.ECD.his; hCTLA-4.His; not shown: hexa-histidine (6xHis) tag
Method: The experiment was to measure the on-rate constant (ka) and off-rate constant (kd) of the antibodies to CTLA-4 ECD based on SPR technology. The affinity constant (KD) is thus consequently determined. Biacore T200, Series S Sensor Chip CM5, Amine Coupling Kit, and 10XHBS-EP were from GE Healthcare. […] In immobilization step, the activation buffer was prepared by mixing 400 mM EDC and 100 mM NHS immediately prior to injection. The CM5 sensor chip was activated for 420 s with the activation buffer. 30 μg/mL of goat anti-human IgG Fc antibody in 10 mM NaAc (pH 4.5) was then injected to Fc1-Fc4 channels for 200 s at a flow rate of 5 μL/min. The chip was deactivated by 1 M ethanolamine-HCl (GE). Then the antibodies were captured on the chip. Briefly, 4 μg/mL antibodies in running buffer (HBS-EP+) was injected individually to Fc3 channel for 30 s at a flow rate of 10 μL/min. […] Regeneration buffer (10 mM Glycine pH 1.5) was injected at 10 μL/min for 30 s following every dissociation phase.

T5 sequence (G7PL88 entry or part of it limits assumed): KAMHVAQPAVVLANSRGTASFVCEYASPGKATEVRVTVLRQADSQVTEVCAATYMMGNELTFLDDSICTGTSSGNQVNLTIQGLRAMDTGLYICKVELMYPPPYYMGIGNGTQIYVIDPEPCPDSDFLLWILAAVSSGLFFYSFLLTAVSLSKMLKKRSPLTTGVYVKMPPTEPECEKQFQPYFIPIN
T9 sequence (P16410 36-161): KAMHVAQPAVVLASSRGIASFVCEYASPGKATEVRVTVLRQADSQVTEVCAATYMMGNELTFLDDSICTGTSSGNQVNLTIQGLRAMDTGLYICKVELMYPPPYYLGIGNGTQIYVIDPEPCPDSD
T4 sequence (P16410 36-161): as above
T2 sequence (P16410 36-223): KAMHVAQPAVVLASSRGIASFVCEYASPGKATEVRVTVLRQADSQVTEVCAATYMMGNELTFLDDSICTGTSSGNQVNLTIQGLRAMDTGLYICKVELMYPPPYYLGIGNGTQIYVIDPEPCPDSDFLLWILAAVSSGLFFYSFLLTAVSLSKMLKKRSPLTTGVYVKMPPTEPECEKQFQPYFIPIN
T3 sequence (G7PL88 entry or part of it limits assumed): as the sequence (P16410 36-161) above, with S14N, I18T, L106M counted along it
T7 sequence (Q15116 25-170): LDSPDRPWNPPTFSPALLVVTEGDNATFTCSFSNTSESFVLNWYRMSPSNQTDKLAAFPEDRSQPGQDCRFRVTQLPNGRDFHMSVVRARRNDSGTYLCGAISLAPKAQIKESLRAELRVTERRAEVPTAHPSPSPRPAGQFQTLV

Binder | EC50 [1] | EC50 [2] | EC50 [3] | EC50 [4] | IC50 [5] | IC50 [6] | binding result (hBTLA.His) | binding result (hICOS.mFC) | IC50 [7] | IC50 [8] | EC50 [9] | EC50 [10] | EC50 [11] | EC50 [12] | EC50 [13] | binding result (hPD-1.mFc) | binding result (hCD28.mFc) | IC50 (read off the curve) [14] | further results
B1 | 325 pM | 73.2 pM | 98.3 pM | 1500 pM | 1100 pM | 2060 pM | no binding (tested: 10 ug/ml) | no binding (tested: 10 ug/ml) | 109 pM | 220 pM | 221 pM | 214 pM | 238 pM | 222 pM | 244 pM | no binding (tested: 10 ug/ml) | no binding (tested: 10 ug/ml) | ~3000 pM | –
B2 | 298 pM | 40.1 pM | 51.2 pM | 1160 pM | 908 pM | 1670 pM | no binding (tested: 10 ug/ml) | no binding (tested: 10 ug/ml) | 78.6 pM | 163 pM | 195 pM | 190 pM | 193 pM | 221 pM | 199 pM | no binding (tested: 10 ug/ml) | no binding (tested: 10 ug/ml) | ~3000 pM | EC50 in inducing ADCC effect [15]: 247 pM; Kd [16]: 140 pM; Kd [17]: 49 pM; Kd [18]: 3130 pM; koff [18]: 0.0015 s⁻¹; kon [18]: 481000 M⁻¹ s⁻¹
